According to publication PMC7126681:

Experiments:
[1] = biological target: plant-expressed griffithsin (Griffithsia sp.) (UniProt P84801); assay: crystal structure
[2] = biological target: His-tagged griffithsin (SeMet-labeled, E. coli-expressed) (Griffithsia sp.) (UniProt P84801); assay: crystal structure

Substance | stoichiometry N [1] | stoichiometry N [2]
plant-expressed griffithsin (from UniProt P84801 1-121) (natural protein) | 2 | 
His-tagged griffithsin (SeMet-labeled, E. coli-expressed) (from UniProt P84801 1-121) (natural protein) |  | 2
